Like-named read-outs stand apart in the source and are kept apart here.
How the values were obtained:
[1] = biological target: T1, human 4-1BB on the surface of HEK293-Hu4-1BB cells (human, UniProt Q07011 24-255); assay: cell-based or functional assay
[2] = biological target: T1, human 4-1BB on the surface of …; assay: flow cytometry on HEK293-Hu4-1BB cells
[3] = biological target: T1, human 4-1BB on the surface of …; assay: flow cytometry on HEK293-Hu4-1BB cells; remark: listed apart in the source
[4] = biological target: T1, human 4-1BB on the surface of …; assay: cell-based or functional assay; remark: listed apart in the source

T1 sequence (Q07011 24-255): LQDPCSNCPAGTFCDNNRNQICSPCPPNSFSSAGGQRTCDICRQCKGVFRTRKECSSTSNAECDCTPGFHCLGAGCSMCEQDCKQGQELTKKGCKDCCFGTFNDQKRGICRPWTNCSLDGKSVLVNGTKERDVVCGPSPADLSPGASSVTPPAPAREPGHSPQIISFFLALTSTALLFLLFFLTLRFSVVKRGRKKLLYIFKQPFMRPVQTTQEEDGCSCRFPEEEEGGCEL

- Fold change in Emax, FcγRIIb-mediated activation of HEK293-4-1BB cells [1]: 2.61 fold
- Fold change in Emax, activation of HEK293-4-1BB cells (no FcγRIIb) [1]: 1.7 fold
- EC50 [2]: 1.18 nM
- EC50 [3]: 1.64 nM
- EC50, 4-1BB/NF-κB luciferase reporter, FcγRIIb cross-linking [4]: 0.027 nM
- EC50, 4-1BB/NF-κB luciferase reporter, no FcγRIIb cross-linking [4]: 2.19 nM
- Emax, 4-1BB/NF-κB luciferase reporter, FcγRIIb cross-linking [4]: 9.39 relative to the antibody-free group
- Emax, 4-1BB/NF-κB luciferase reporter, no FcγRIIb cross-linking [4]: 4.3 relative to the antibody-free group
B1: Urelumab (antibody, V domains shown)
VH: QVQLQQWGAGLLKPSETLSLTCAVYGGSFSGYYWSWIRQSPEKGLEWIGEINHGGYVTYNPSLESRVTISVDTSKNQFSLKLSSVTAADTAVYYCARDYGPGNYDWYFDLWGRGTLVTVSS
VL: EIVLTQSPATLSLSPGERATLSCRASQSVSSYLAWYQQKPGQAPRLLIYDASNRATGIPARFSGSGSGTDFTLTISSLEPEDFAVYYCQQRSNWPPALTFGGGTKVEIK

Source: EP4628507A1 (Jiangsu Hengrui Pharmaceuticals Co., Ltd., dated 2025)
